# ± gives the uncertainty stated by the source.
# Assay: protein stability index of a GFP-peptide fusion (yeast GPS) (PSI 1-4); higher = more stable; sorted into four equal gates, so the index is relative within each strain
# Outline: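 Plasmids in a pooled yeast library fused tiled 17-residue yeast protein peptides downstream of GFP and also expressed Cherry. Mid-log cultures grown without leucine were sorted into four equal gates by GFP/Cherry fluorescence ratio. Each gate's plasmids were PCR-amplified and Illumina-sequenced, and reads were matched to strains by barcodes. The protein stability index is derived by multiplying each gate's read frequency by its gate number and summing the results.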
Sequence,protein stability index (doa10∆),protein stability index (pdr5∆),protein stability index (san1∆),protein stability index (ubr1∆)
EFEIPVSFNGFKLPKKF [BRR2],2.58 ± 0.1,2.94 ± 0.12,2.61 ± 0.12,2.91 ± 0.094
PDLPALEASYSKSYTPR [SMC4],2.28 ± 0.064,3.02 ± 0.088,2.75 ± 0.1,2.6 ± 0.071
SHNFQNAIFQMESEEVP [PCI8],2.85 ± 0.059,3.07 ± 0.068,2.7 ± 0.049,3.07 ± 0.05
AATIGANFIFSPASGIV [RPT4],2.56 ± 0.061,2.66 ± 0.055,1.84 ± 0.1,2.18 ± 0.083
FNQEGDYNFKYGIPLEF [PRP8],3.14 ± 0.084,3.11 ± 0.077,1.92 ± 0.076,3.37 ± 0.077
TYEAIEITDAYCFAKND [YMR129W/POM152],2.93 ± 0.061,2.66 ± 0.053,2.7 ± 0.05,3.01 ± 0.045
EVGMKVQSGQIYINKSV [RET1],2.83 ± 0.074,3.05 ± 0.073,2.6 ± 0.082,3.08 ± 0.069
LYQIWIVMVWLKENTYV [YDL116W/NUP84],1.85 ± 0.061,1.77 ± 0.062,2.11 ± 0.097,2.14 ± 0.046
RENLHILNEVFTNPSIV [RRP6],2.26 ± 0.076,2.93 ± 0.063,2.5 ± 0.058,2.25 ± 0.053
GTGKTLLAKAVANQTSA [RPT2],1.96 ± 0.085,1.95 ± 0.1,2.72 ± 0.16,1.89 ± 0.092
TFRIFHNHDTGCDENDS [YDL088C/ASM4],2.92 ± 0.1,3.09 ± 0.14,3.27 ± 0.1,3.11 ± 0.1
SLISTRNDSTVNDSVIS [BRN1],2.6 ± 0.081,2.81 ± 0.077,2.72 ± 0.06,2.67 ± 0.059
LYVPRKCSATNRIIKAD [RPS21A],3.08 ± 0.27,1.83 ± 0.2,2.13 ± 0.12,2.19 ± 0.15
AKKHKLNAITLDGDRAD [SMC3],2.37 ± 0.21,2.66 ± 0.28,,
PSCNNMLLITSGDSGVY [RPC11],1.32 ± 0.077,1.55 ± 0.22,,2.24 ± 0.17
LPRKEVDDVLGGGWDNV [RPC11],3.17 ± 0.1,3.63 ± 0.14,3.26 ± 0.066,3.32 ± 0.099
KIDLASGKITDFIKFDA [RPS4A],3.26 ± 0.072,3.21 ± 0.078,3.13 ± 0.07,3.35 ± 0.082
IMRILKSNGLAPEIPED [RPS13],2.14 ± 0.09,3.09 ± 0.15,1.9 ± 0.22,2.91 ± 0.057
EPFFLVTKITDMLLHKY [SRB8],2.86 ± 0.11,2.52 ± 0.088,2.88 ± 0.061,2.72 ± 0.083

Sequence,protein stability index (doa10∆),protein stability index (pdr5∆),protein stability index (san1∆),protein stability index (ubr1∆)
AAGNASSLPPGEILLPD [SNF5],3.15 ± 0.077,3.2 ± 0.063,3.1 ± 0.06,3.3 ± 0.053
LHLAVGKKWFEVSQFLI [NAS6],2.12 ± 0.076,1.63 ± 0.059,1.63 ± 0.091,1.51 ± 0.073
NKQYELFMKSLIENCKK [SWI1],2.58 ± 0.053,2.85 ± 0.061,2.77 ± 0.046,2.66 ± 0.036
FRHFIGIKAKHDKNIQK [ISW2],2.68 ± 0.089,2.6 ± 0.085,2.48 ± 0.06,2.51 ± 0.078
QKKRVVDPFTRKEWFDI [RPS1A],2.77 ± 0.15,3.1 ± 0.18,3.03 ± 0.08,3.13 ± 0.13
TFKDGVILGADSRTTTG [PRE3],,2.8 ± 0.12,2.69 ± 0.19,2.59 ± 0.14
DKSTKTAEAPTLSFNFS [YOR098C/NUP1],3.27 ± 0.076,3.29 ± 0.083,3.24 ± 0.051,3.23 ± 0.084
ILSVKLAELINMTTIAD [SRB6],2.6 ± 0.072,2.46 ± 0.076,2.75 ± 0.069,2.85 ± 0.068
EVEEDDEDDDQPMISPD [SWI3],3.21 ± 0.099,3.45 ± 0.056,3.33 ± 0.046,3.15 ± 0.06
KLNTFNLQTFTHEQWSN [SRP72],3 ± 0.12,2.83 ± 0.078,2.36 ± 0.076,2.78 ± 0.062
DRNLTEFDSTDTSLCIN [RRI1],2.98 ± 0.12,3 ± 0.12,2.59 ± 0.13,2.79 ± 0.067
KKMGVPYAIIKGKARLG [RPL8B],2.15 ± 0.15,2.12 ± 0.15,2.11 ± 0.17,3.41 ± 0.28
GNQQQQLQQQPQMQCAL [YGL172W/NUP49],2.79 ± 0.17,2.66 ± 0.19,2.87 ± 0.1,
EDNYNPKMQWSLQDNSA [RPN4],3.21 ± 0.11,3.3 ± 0.13,3.22 ± 0.087,3.07 ± 0.068
DFLGVASTGSGKTLAFV [PRP28],3.42 ± 0.26,3.05 ± 0.22,2.92 ± 0.22,3.31 ± 0.061
IRNCATEAGFFAIRDDR [RPT4],2.82 ± 0.062,3.24 ± 0.079,2.78 ± 0.097,2.91 ± 0.042
SKTLSLIQSYSLLDKPD [FAS1],2.18 ± 0.078,2.01 ± 0.057,2.12 ± 0.21,2.14 ± 0.074
RTSTRGRGRGRGRGRGR [SNF2],3.41 ± 0.11,3.17 ± 0.12,2.86 ± 0.098,3.08 ± 0.15
RSSRLHIVYSLLVNPDI [YML103C/NUP188],1.57 ± 0.047,2.01 ± 0.05,1.87 ± 0.075,2.26 ± 0.05

# — the supplement of paper PMC9732359
